Data reported in paper PMC5725826, “Characterization of UGT716A1 as a Multi-substrate UDP:Flavonoid Glucosyltransferase Gene in Ginkgo biloba” (Frontiers in Plant Science, 2017).

How the values were obtained:
UGT92K1 = molecular target: T1, UGT92K1 (Ginkgo biloba, UniProt A0A2Z2PC79); experiment: HPLC glucosylation assay, product identified with authentic standard; format: biochemical; details: 100 μM substrate; 4 mM UDP-glucose; Tris-HCl pH 7.0; 30°C; product genistein 7-O-glucoside
T1 construct: gene UGT7
T1 sequence (A0A2Z2PC79 1-496): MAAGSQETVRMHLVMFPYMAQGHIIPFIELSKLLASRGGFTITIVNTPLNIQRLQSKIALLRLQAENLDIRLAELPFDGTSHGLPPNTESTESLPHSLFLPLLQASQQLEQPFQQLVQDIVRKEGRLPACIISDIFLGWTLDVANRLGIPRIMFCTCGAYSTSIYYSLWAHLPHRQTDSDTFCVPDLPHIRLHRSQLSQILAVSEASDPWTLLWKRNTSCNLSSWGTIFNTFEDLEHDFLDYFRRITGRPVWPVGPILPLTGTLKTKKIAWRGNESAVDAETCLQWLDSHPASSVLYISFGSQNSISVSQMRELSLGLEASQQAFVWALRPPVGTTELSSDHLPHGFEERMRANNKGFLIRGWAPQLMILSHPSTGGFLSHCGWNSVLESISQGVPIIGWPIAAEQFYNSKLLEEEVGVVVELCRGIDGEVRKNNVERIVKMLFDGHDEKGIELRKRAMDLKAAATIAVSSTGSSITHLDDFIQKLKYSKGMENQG

purified protein [1] = substrate: O=c1cc(-c2ccc(O)cc2)oc2cc(O)cc(O)c12; experiment: purified protein; details: 4 mM UDP-glucose, Tris-HCl pH 7.0, 30°C
purified protein [2] = substrate: COC(=O)c1cc(O)c(O)c(O)c1; experiment: purified protein; format: biochemical, Ginkgo biloba; details: 4 mM UDP-glucose, Tris-HCl pH 7.0, 30°C
purified protein [3] = substrate: O=C(O[C@@H]1Cc2c(O)cc(O)cc2O[C@@H]1c1cc(O)c(O)c(O)c1)c1cc(O)c(O)c(O)c1; experiment: purified protein; format: biochemical, Ginkgo biloba; details: 4 mM UDP-glucose, Tris-HCl pH 7.0, 30°C
purified protein [4] = substrate: O=C(O[C@@H]1Cc2c(O)cc(O)cc2O[C@H]1c1cc(O)c(O)c(O)c1)c1cc(O)c(O)c(O)c1; experiment: purified protein; format: biochemical, Ginkgo biloba; details: 4 mM UDP-glucose, Tris-HCl pH 7.0, 30°C
purified protein [5] = substrate: O=C(O[C@@H]1Cc2c(O)cc(O)cc2O[C@H]1c1ccc(O)c(O)c1)c1cc(O)c(O)c(O)c1; experiment: purified protein; format: biochemical, Ginkgo biloba; details: 4 mM UDP-glucose, Tris-HCl pH 7.0, 30°C
purified protein [6] = substrate: O=c1c(-c2ccc(O)cc2)coc2cc(O)cc(O)c12; experiment: purified protein; format: biochemical, Ginkgo biloba; details: 4 mM UDP-glucose, Tris-HCl pH 7.0, 30°C
purified protein [7] = substrate: O=c1c(O)c(-c2ccc(O)c(O)c2)oc2cc(O)cc(O)c12; experiment: purified protein; format: biochemical, Ginkgo biloba; details: 4 mM UDP-glucose, Tris-HCl pH 7.0, 30°C
purified protein [8] = substrate: O=c1cc(-c2ccc(O)c(O)c2)oc2cc(O)cc(O)c12; experiment: purified protein; format: biochemical, Ginkgo biloba; details: 4 mM UDP-glucose, Tris-HCl pH 7.0, 30°C

In the case of `O=c1c(-c2ccc(O)cc2)coc2cc(O)cc(O)c12` [genistein], the “HPLC glucosylation assay, product identified with authentic standard” value (UGT92K1) is reported as “recombinant UGT92K1 protein only displayed activity toward genistein”.

B1: UGT716A1 (Ginkgo biloba) (protein)
chain: MEMAGGYIMVVPFHGQGHVFPCLELCKQLAARGVAVTIVASRSIRSSLQSIANHDASGLGVRIMELREATSEEQDAHPGPFLTDTLQEPFEEMLNNLAAEAAPLPLCVIGDVMVGWVTTVCDKFHIPRVPFFTSSACSIAFEYALWKHRPLDLKEDEAFAVPGFPESMPIALSDTLHRAPHPPDHHQRNPPPFPRRGHPPPPDRGHPPPFGHGGPPHGPPHPPTGPDSNPRSPPWMNGLNESSGFLVNTCRELEAPFIEYMVKETEKPVWAVGPLLPSSFWEGSITHDSSFRSRKSNIDEKQCLEWLNSKPPASVLYVSFGSEVGPSEEEIRELAYGLEAAQKPFIWVLQAGHHHPHHQEEAEEQDLLPAGFEHRLEGRGLIIRGWAPQLLILSHPSTGGFLSHCGWNSTVESIGHGVPLLAWPIRGDQHYNAKLLVAELKVAAMIHMPKDDGMVRREEIAKGVDVLLGSEHGEKLRERAVSLKLRLASCSGSSQKMLDAFVVHLSSLQKKL
In the case of B1, the Km (purified protein [1]) is reported as 230 µM, the Km (purified protein [2]) is reported as 390 µM and the Km (purified protein [3]) is reported as 43 µM. It also gave a Km (purified protein [4]) of 3.2 µM, a Km (purified protein [5]) of 14 µM and a Km (purified protein [6]) of 310 µM. It also gave a Km (purified protein [7]) of 10 µM and a Km (purified protein [8]) of 28 µM.
